Laboratory results published in patent US20240400654A1.
Several values for one entry are separate records, joined by “and”; a condition that tells them apart may be missing. Equal values may be shown once.

Biological target: HRgpA-6H (Porphyromonas gingivalis) (UniProt P28784)
Test: ELISA, coated HRgpA-6H

Chain of UniProt P28784 (P28784 228-860 limits assumed): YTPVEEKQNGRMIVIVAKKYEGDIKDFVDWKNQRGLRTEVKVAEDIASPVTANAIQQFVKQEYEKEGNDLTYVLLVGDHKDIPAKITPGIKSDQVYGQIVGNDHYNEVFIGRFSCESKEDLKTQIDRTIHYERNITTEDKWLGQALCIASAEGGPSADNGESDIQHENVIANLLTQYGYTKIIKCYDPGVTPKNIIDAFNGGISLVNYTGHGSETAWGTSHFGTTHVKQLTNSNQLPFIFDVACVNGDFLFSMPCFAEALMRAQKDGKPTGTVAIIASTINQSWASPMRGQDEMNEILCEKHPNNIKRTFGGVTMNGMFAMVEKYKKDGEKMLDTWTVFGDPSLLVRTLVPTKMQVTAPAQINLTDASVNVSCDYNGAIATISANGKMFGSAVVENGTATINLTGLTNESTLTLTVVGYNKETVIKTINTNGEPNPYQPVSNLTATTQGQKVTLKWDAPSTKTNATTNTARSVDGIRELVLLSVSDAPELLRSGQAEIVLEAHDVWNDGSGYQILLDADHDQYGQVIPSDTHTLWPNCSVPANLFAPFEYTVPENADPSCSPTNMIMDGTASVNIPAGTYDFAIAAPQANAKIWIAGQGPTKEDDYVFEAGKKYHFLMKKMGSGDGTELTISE

B1: KB001 mouse Fab VL T52M (Fab, V domains shown)
VH: EVQLKQSGPGLVAPSQSLSITCTVSGFSLSIYSVHWVRQPPGKGLEWLGMIWGGGSSDYNSALKSRLSISKDNSKSQVFLKMNSLQTDDTAMYYCARNGNFYAMDYWGQGTSVTVSS
VL: QIVLTQSPAIMSASLGERVTMTCTASSSVSSSFLHWYQQKPGSSPQLWIYSMSNLASGVPARFSGSGSGTSYSLTISSMEAEDAATYYCHQYHHSPYIYTFGGGTKLEIK
For B1, the OD450 nm was 0.662 and the Ratio OD(Variant)/OD(WT) was 0.841.

B2: KB001 mouse Fab VL N54A (Fab, V domains shown)
VH: EVQLKQSGPGLVAPSQSLSITCTVSGFSLSIYSVHWVRQPPGKGLEWLGMIWGGGSSDYNSALKSRLSISKDNSKSQVFLKMNSLQTDDTAMYYCARNGNFYAMDYWGQGTSVTVSS
VL: QIVLTQSPAIMSASLGERVTMTCTASSSVSSSFLHWYQQKPGSSPQLWIYSTSALASGVPARFSGSGSGTSYSLTISSMEAEDAATYYCHQYHHSPYIYTFGGGTKLEIK
B2 gave an OD450 nm of 0.776 and a Ratio OD(Variant)/OD(WT) of 0.99.

B3: KB001 mouse Fab VL S53A (Fab, V domains shown)
VH: EVQLKQSGPGLVAPSQSLSITCTVSGFSLSIYSVHWVRQPPGKGLEWLGMIWGGGSSDYNSALKSRLSISKDNSKSQVFLKMNSLQTDDTAMYYCARNGNFYAMDYWGQGTSVTVSS
VL: QIVLTQSPAIMSASLGERVTMTCTASSSVSSSFLHWYQQKPGSSPQLWIYSTANLASGVPARFSGSGSGTSYSLTISSMEAEDAATYYCHQYHHSPYIYTFGGGTKLEIK
Work on B3 yielded an OD450 nm of 0.784 and a Ratio OD(Variant)/OD(WT) of 0.996.

B4: KB001 mouse Fab VL S53W (Fab, V domains shown)
VH: EVQLKQSGPGLVAPSQSLSITCTVSGFSLSIYSVHWVRQPPGKGLEWLGMIWGGGSSDYNSALKSRLSISKDNSKSQVFLKMNSLQTDDTAMYYCARNGNFYAMDYWGQGTSVTVSS
VL: QIVLTQSPAIMSASLGERVTMTCTASSSVSSSFLHWYQQKPGSSPQLWIYSTWNLASGVPARFSGSGSGTSYSLTISSMEAEDAATYYCHQYHHSPYIYTFGGGTKLEIK
Work on B4 yielded an OD450 nm of 0.727 and a Ratio OD(Variant)/OD(WT) of 0.923.

B5: KB001 mouse Fab VL N54K (Fab, V domains shown)
VH: EVQLKQSGPGLVAPSQSLSITCTVSGFSLSIYSVHWVRQPPGKGLEWLGMIWGGGSSDYNSALKSRLSISKDNSKSQVFLKMNSLQTDDTAMYYCARNGNFYAMDYWGQGTSVTVSS
VL: QIVLTQSPAIMSASLGERVTMTCTASSSVSSSFLHWYQQKPGSSPQLWIYSTSKLASGVPARFSGSGSGTSYSLTISSMEAEDAATYYCHQYHHSPYIYTFGGGTKLEIK
B5 showed an OD450 nm of 0.727 and a Ratio OD(Variant)/OD(WT) of 0.928.

B6: KB001 mouse Fab VL N54E (Fab, V domains shown)
VH: EVQLKQSGPGLVAPSQSLSITCTVSGFSLSIYSVHWVRQPPGKGLEWLGMIWGGGSSDYNSALKSRLSISKDNSKSQVFLKMNSLQTDDTAMYYCARNGNFYAMDYWGQGTSVTVSS
VL: QIVLTQSPAIMSASLGERVTMTCTASSSVSSSFLHWYQQKPGSSPQLWIYSTSELASGVPARFSGSGSGTSYSLTISSMEAEDAATYYCHQYHHSPYIYTFGGGTKLEIK
In the case of B6, the OD450 nm is reported as 0.744 and 0.74 and the Ratio OD(Variant)/OD(WT) is reported as 0.95 and 0.944.

B7: KB001 mouse Fab VL S53Y (Fab, V domains shown)
VH: EVQLKQSGPGLVAPSQSLSITCTVSGFSLSIYSVHWVRQPPGKGLEWLGMIWGGGSSDYNSALKSRLSISKDNSKSQVFLKMNSLQTDDTAMYYCARNGNFYAMDYWGQGTSVTVSS
VL: QIVLTQSPAIMSASLGERVTMTCTASSSVSSSFLHWYQQKPGSSPQLWIYSTYNLASGVPARFSGSGSGTSYSLTISSMEAEDAATYYCHQYHHSPYIYTFGGGTKLEIK
With B7 the OD450 nm was 0.776 and 0.781 and the Ratio OD(Variant)/OD(WT) was 0.985 and 0.992.

B8: KB001 mouse Fab VL L55Q (Fab, V domains shown)
VH: EVQLKQSGPGLVAPSQSLSITCTVSGFSLSIYSVHWVRQPPGKGLEWLGMIWGGGSSDYNSALKSRLSISKDNSKSQVFLKMNSLQTDDTAMYYCARNGNFYAMDYWGQGTSVTVSS
VL: QIVLTQSPAIMSASLGERVTMTCTASSSVSSSFLHWYQQKPGSSPQLWIYSTSNQASGVPARFSGSGSGTSYSLTISSMEAEDAATYYCHQYHHSPYIYTFGGGTKLEIK
B8 was tested, and the OD450 nm was 0.711 and 0.692 and 0.684 and the Ratio OD(Variant)/OD(WT) was 0.907 and 0.883 and 0.873.

B9: KB001 mouse Fab VL L55S (Fab, V domains shown)
VH: EVQLKQSGPGLVAPSQSLSITCTVSGFSLSIYSVHWVRQPPGKGLEWLGMIWGGGSSDYNSALKSRLSISKDNSKSQVFLKMNSLQTDDTAMYYCARNGNFYAMDYWGQGTSVTVSS
VL: QIVLTQSPAIMSASLGERVTMTCTASSSVSSSFLHWYQQKPGSSPQLWIYSTSNSASGVPARFSGSGSGTSYSLTISSMEAEDAATYYCHQYHHSPYIYTFGGGTKLEIK
B9 was tested, and the OD450 nm was 0.672 and the Ratio OD(Variant)/OD(WT) was 0.858.

B10: KB001 mouse Fab VL S53D (Fab, V domains shown)
VH: EVQLKQSGPGLVAPSQSLSITCTVSGFSLSIYSVHWVRQPPGKGLEWLGMIWGGGSSDYNSALKSRLSISKDNSKSQVFLKMNSLQTDDTAMYYCARNGNFYAMDYWGQGTSVTVSS
VL: QIVLTQSPAIMSASLGERVTMTCTASSSVSSSFLHWYQQKPGSSPQLWIYSTDNLASGVPARFSGSGSGTSYSLTISSMEAEDAATYYCHQYHHSPYIYTFGGGTKLEIK
Work on B10 yielded an OD450 nm of 0.775 and a Ratio OD(Variant)/OD(WT) of 0.984.

B11: KB001 mouse Fab VL N54F (Fab, V domains shown)
VH: EVQLKQSGPGLVAPSQSLSITCTVSGFSLSIYSVHWVRQPPGKGLEWLGMIWGGGSSDYNSALKSRLSISKDNSKSQVFLKMNSLQTDDTAMYYCARNGNFYAMDYWGQGTSVTVSS
VL: QIVLTQSPAIMSASLGERVTMTCTASSSVSSSFLHWYQQKPGSSPQLWIYSTSFLASGVPARFSGSGSGTSYSLTISSMEAEDAATYYCHQYHHSPYIYTFGGGTKLEIK
For B11, the OD450 nm was 0.765 and the Ratio OD(Variant)/OD(WT) was 0.976.

B12: KB001 mouse Fab VL L55T (Fab, V domains shown)
VH: EVQLKQSGPGLVAPSQSLSITCTVSGFSLSIYSVHWVRQPPGKGLEWLGMIWGGGSSDYNSALKSRLSISKDNSKSQVFLKMNSLQTDDTAMYYCARNGNFYAMDYWGQGTSVTVSS
VL: QIVLTQSPAIMSASLGERVTMTCTASSSVSSSFLHWYQQKPGSSPQLWIYSTSNTASGVPARFSGSGSGTSYSLTISSMEAEDAATYYCHQYHHSPYIYTFGGGTKLEIK
Work on B12 yielded an OD450 nm of 0.727 and a Ratio OD(Variant)/OD(WT) of 0.928.

B13: KB001 mouse Fab VL S53V (Fab, V domains shown)
VH: EVQLKQSGPGLVAPSQSLSITCTVSGFSLSIYSVHWVRQPPGKGLEWLGMIWGGGSSDYNSALKSRLSISKDNSKSQVFLKMNSLQTDDTAMYYCARNGNFYAMDYWGQGTSVTVSS
VL: QIVLTQSPAIMSASLGERVTMTCTASSSVSSSFLHWYQQKPGSSPQLWIYSTVNLASGVPARFSGSGSGTSYSLTISSMEAEDAATYYCHQYHHSPYIYTFGGGTKLEIK
B13 was tested, and the OD450 nm was 0.702 and the Ratio OD(Variant)/OD(WT) was 0.891.

B14: KB001 mouse Fab VL N54D (Fab, V domains shown)
VH: EVQLKQSGPGLVAPSQSLSITCTVSGFSLSIYSVHWVRQPPGKGLEWLGMIWGGGSSDYNSALKSRLSISKDNSKSQVFLKMNSLQTDDTAMYYCARNGNFYAMDYWGQGTSVTVSS
VL: QIVLTQSPAIMSASLGERVTMTCTASSSVSSSFLHWYQQKPGSSPQLWIYSTSDLASGVPARFSGSGSGTSYSLTISSMEAEDAATYYCHQYHHSPYIYTFGGGTKLEIK
B14 gave an OD450 nm of 0.725 and a Ratio OD(Variant)/OD(WT) of 0.925.

B15: KB001 mouse Fab VL S53C (Fab, V domains shown)
VH: EVQLKQSGPGLVAPSQSLSITCTVSGFSLSIYSVHWVRQPPGKGLEWLGMIWGGGSSDYNSALKSRLSISKDNSKSQVFLKMNSLQTDDTAMYYCARNGNFYAMDYWGQGTSVTVSS
VL: QIVLTQSPAIMSASLGERVTMTCTASSSVSSSFLHWYQQKPGSSPQLWIYSTCNLASGVPARFSGSGSGTSYSLTISSMEAEDAATYYCHQYHHSPYIYTFGGGTKLEIK
B15 gave an OD450 nm of 0.697 and a Ratio OD(Variant)/OD(WT) of 0.885.

B16: KB001 mouse Fab VL N54W (Fab, V domains shown)
VH: EVQLKQSGPGLVAPSQSLSITCTVSGFSLSIYSVHWVRQPPGKGLEWLGMIWGGGSSDYNSALKSRLSISKDNSKSQVFLKMNSLQTDDTAMYYCARNGNFYAMDYWGQGTSVTVSS
VL: QIVLTQSPAIMSASLGERVTMTCTASSSVSSSFLHWYQQKPGSSPQLWIYSTSWLASGVPARFSGSGSGTSYSLTISSMEAEDAATYYCHQYHHSPYIYTFGGGTKLEIK
With B16 the OD450 nm was 0.646 and the Ratio OD(Variant)/OD(WT) was 0.825.

B17: KB001 mouse Fab VL N54L (Fab, V domains shown)
VH: EVQLKQSGPGLVAPSQSLSITCTVSGFSLSIYSVHWVRQPPGKGLEWLGMIWGGGSSDYNSALKSRLSISKDNSKSQVFLKMNSLQTDDTAMYYCARNGNFYAMDYWGQGTSVTVSS
VL: QIVLTQSPAIMSASLGERVTMTCTASSSVSSSFLHWYQQKPGSSPQLWIYSTSLLASGVPARFSGSGSGTSYSLTISSMEAEDAATYYCHQYHHSPYIYTFGGGTKLEIK
In the case of B17, the OD450 nm is reported as 0.774 and the Ratio OD(Variant)/OD(WT) is reported as 0.988.

B18: KB001 mouse Fab VL S53E (Fab, V domains shown)
VH: EVQLKQSGPGLVAPSQSLSITCTVSGFSLSIYSVHWVRQPPGKGLEWLGMIWGGGSSDYNSALKSRLSISKDNSKSQVFLKMNSLQTDDTAMYYCARNGNFYAMDYWGQGTSVTVSS
VL: QIVLTQSPAIMSASLGERVTMTCTASSSVSSSFLHWYQQKPGSSPQLWIYSTENLASGVPARFSGSGSGTSYSLTISSMEAEDAATYYCHQYHHSPYIYTFGGGTKLEIK
B18 gave an OD450 nm of 0.766 and a Ratio OD(Variant)/OD(WT) of 0.973.

B19: KB001 mouse Fab VL S53R (Fab, V domains shown)
VH: EVQLKQSGPGLVAPSQSLSITCTVSGFSLSIYSVHWVRQPPGKGLEWLGMIWGGGSSDYNSALKSRLSISKDNSKSQVFLKMNSLQTDDTAMYYCARNGNFYAMDYWGQGTSVTVSS
VL: QIVLTQSPAIMSASLGERVTMTCTASSSVSSSFLHWYQQKPGSSPQLWIYSTRNLASGVPARFSGSGSGTSYSLTISSMEAEDAATYYCHQYHHSPYIYTFGGGTKLEIK
Work on B19 yielded an OD450 nm of 0.637 and a Ratio OD(Variant)/OD(WT) of 0.809.

B20: KB001 mouse Fab VL S53L (Fab, V domains shown)
VH: EVQLKQSGPGLVAPSQSLSITCTVSGFSLSIYSVHWVRQPPGKGLEWLGMIWGGGSSDYNSALKSRLSISKDNSKSQVFLKMNSLQTDDTAMYYCARNGNFYAMDYWGQGTSVTVSS
VL: QIVLTQSPAIMSASLGERVTMTCTASSSVSSSFLHWYQQKPGSSPQLWIYSTLNLASGVPARFSGSGSGTSYSLTISSMEAEDAATYYCHQYHHSPYIYTFGGGTKLEIK
In the case of B20, the OD450 nm is reported as 0.639 and 0.636 and the Ratio OD(Variant)/OD(WT) is reported as 0.811 and 0.808.

B21: KB001 mouse Fab VL N54I (Fab, V domains shown)
VH: EVQLKQSGPGLVAPSQSLSITCTVSGFSLSIYSVHWVRQPPGKGLEWLGMIWGGGSSDYNSALKSRLSISKDNSKSQVFLKMNSLQTDDTAMYYCARNGNFYAMDYWGQGTSVTVSS
VL: QIVLTQSPAIMSASLGERVTMTCTASSSVSSSFLHWYQQKPGSSPQLWIYSTSILASGVPARFSGSGSGTSYSLTISSMEAEDAATYYCHQYHHSPYIYTFGGGTKLEIK
In the case of B21, the OD450 nm is reported as 0.755 and 0.772 and 0.754 and the Ratio OD(Variant)/OD(WT) is reported as 0.964 and 0.985 and 0.962.
